Values quoted from earlier work in article PMC3902607.
pKd: −log10 of the molar value.

Target: RXFP2 (Homo sapiens) (UniProt Q8WXD0)
Sequence of UniProt Q8WXD0 (Q8WXD0 whole entry): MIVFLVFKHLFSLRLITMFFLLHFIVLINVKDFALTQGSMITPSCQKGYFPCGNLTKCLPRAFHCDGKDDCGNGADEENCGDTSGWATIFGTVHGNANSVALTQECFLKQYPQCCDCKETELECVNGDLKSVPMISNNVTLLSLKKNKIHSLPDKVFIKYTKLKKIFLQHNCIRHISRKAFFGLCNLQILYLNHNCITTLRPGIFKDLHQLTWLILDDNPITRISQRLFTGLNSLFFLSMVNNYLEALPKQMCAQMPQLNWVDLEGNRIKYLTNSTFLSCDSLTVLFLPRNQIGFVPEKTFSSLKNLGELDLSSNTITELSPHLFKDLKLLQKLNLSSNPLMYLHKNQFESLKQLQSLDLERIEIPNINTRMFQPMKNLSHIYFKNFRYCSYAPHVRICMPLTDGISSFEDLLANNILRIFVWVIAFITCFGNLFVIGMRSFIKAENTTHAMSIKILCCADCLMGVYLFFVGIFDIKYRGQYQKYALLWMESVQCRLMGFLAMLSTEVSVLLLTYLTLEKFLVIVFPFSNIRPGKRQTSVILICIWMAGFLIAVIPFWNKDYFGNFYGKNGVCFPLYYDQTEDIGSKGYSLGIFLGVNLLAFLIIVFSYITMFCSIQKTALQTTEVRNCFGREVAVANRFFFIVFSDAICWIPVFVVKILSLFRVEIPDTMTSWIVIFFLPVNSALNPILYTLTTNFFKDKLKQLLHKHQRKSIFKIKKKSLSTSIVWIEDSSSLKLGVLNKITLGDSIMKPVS

- pKd: > 9.00
Substance: INSL3 (from UniProt P51460)
